The experiment concerns the target HuROR2-mFc. Nature of the experiment: ELISA.

The EC50 is the concentration at which the effect is half-maximal. Low readings indicate a more potent agent, high ones a less potent agent. On to BA302, for which the EC50 is 11.9 ng/mL (pH 6.0, 1.26 g/L sodium bicarbonate, 0.09 g/L L-lactic acid) and “no meaningful EC50 could be calculated” (pH 7.4, 1.26 g/L sodium bicarbonate, 0.09 g/L L-lactic acid).

Take BA3021: the EC50 by setting is: (pH 6.0, 2.5 g/L sodium bicarbonate) 56.3 ng/mL; (pH 7.4, 2.5 g/L sodium bicarbonate) “no meaningful EC50 could be calculated”.

For the origin of these results see PMC11988251.
